How the values were obtained:
[1] = tested on: CC(=O)SCCNC(=O)CCNC(=O)[C@H](O)C(C)(C)COP(=O)(O)OP(=O)(O)OC[C@H]1O[C@@H](n2cnc3c(N)ncnc32)[C@H](O)[C@@H]1OP(=O)(O)O; assay: purified protein; conditions: acetyl-CoA as only substrate, 12.5-400 uM, 50 mM sodium phosphate, 3 mM EDTA, 1 mM DTT, 22 °C, 3 uM enzyme
BktBbr [2] = target: T1, BktBbr (Burkholderia sp. RF2-non_BP3, UniProt Z9IDK7UI24); assay: X-ray crystal structure, soaked, […] Å; type: binding; conditions: 20 mM ligand soak 3 h; active site and CoA tunnel; paper calls CoA esters covalent
T1 construct: synthetic codon-optimised gene in pET-28a(+)-TEV (NdeI/XhoI), E. coli BL21(DE3), Ni-NTA; tetramer

BktBbr [3] = target: T2, BktBbr (Burkholderia sp. RF2-non_BP3, UniProt Z9IDK7UI24, S254A); assay: coupled alpha-KGDH assay, TAL formation; type: biochemical; conditions: acetoacetyl-CoA varied to 200 uM, acetyl-CoA fixed 200 uM; 22 °C
T2 construct: synthetic codon-optimised gene in pET-28a(+)-TEV (NdeI/XhoI), E. coli BL21(DE3), Ni-NTA; tetramer

BktBbr [4] = target: T3, BktBbr (Burkholderia sp. RF2-non_BP3, UniProt Z9IDK7UI24, G255A); assay: coupled alpha-KGDH assay, TAL formation; type: biochemical; conditions: acetoacetyl-CoA varied to 200 uM, acetyl-CoA fixed 200 uM; 22 °C
T3 construct: synthetic codon-optimised gene in pET-28a(+)-TEV (NdeI/XhoI), E. coli BL21(DE3), Ni-NTA; tetramer

BktBbr [5] = target: T1, BktBbr; assay: X-ray crystal structure, soaked, […] Å; type: binding; conditions: 20 mM ligand soak 3 h; CoA tunnel, water-mediated contacts; paper calls CoA esters covalent
BktBbb = tested on: T4, BktBbb; assay: coupled alpha-KGDH assay, NADH fluorescence; type: biochemical, Burkholderia sp. Bp8998; conditions: acetyl-CoA as only substrate, 12.5-400 uM; 50 mM sodium phosphate, 3 mM EDTA, 1 mM DTT; 22 °C; 3 uM enzyme
T4 construct: gene bktB; synthetic codon-optimised gene in pET-28a(+)-TEV, E. coli BL21(DE3), Ni-NTA
From the text: coupled alpha-KGDH assay, NADH fluorescence on BktBbb | Michaelis-Menten plot of all BktBs and 2-PS with only acetyl-CoA or malonyl-CoA

BktBbr [6] = target: T1, BktBbr; assay: X-ray crystal structure, soaked, […] Å; type: binding; conditions: 20 mM ligand soak 3 h; active site and CoA tunnel; paper calls CoA esters covalent; remark: listed apart in the source
[7] = substrate: CC(C)(COP(=O)(O)OP(=O)(O)OC[C@H]1O[C@@H](n2cnc3c(N)ncnc32)[C@H](O)[C@@H]1OP(=O)(O)O)[C@@H](O)C(=O)NCCC(=O)NCCSC(=O)CC(=O)O; assay: coupled alpha-KGDH assay, NADH fluorescence; type: biochemical, Gerbera hybrid cultivar; conditions: malonyl-CoA as only substrate, 12.5-400 uM, 22 °C
From the text: coupled alpha-KGDH assay, NADH fluorescence on 2-PS | Michaelis-Menten plot of all BktBs and 2-PS with only acetyl-CoA or malonyl-CoA

[8] = substrate: CC(=O)SCCNC(=O)CCNC(=O)[C@H](O)C(C)(C)COP(=O)(O)OP(=O)(O)OC[C@H]1O[C@@H](n2cnc3c(N)ncnc32)[C@H](O)[C@@H]1OP(=O)(O)O; assay: coupled alpha-KGDH assay, NADH fluorescence; type: biochemical, Cupriavidus necator; conditions: acetyl-CoA as only substrate, 12.5-400 uM, 50 mM sodium phosphate, 3 mM EDTA, 1 mM DTT, 22 °C, 3 uM enzyme
From the text: coupled alpha-KGDH assay, NADH fluorescence on BktBcn | BktBbr and BktBba have slightly higher kcat/KM than BktBcn and BktBcl

BktBbr (Burkholderia sp. RF2-non_BP3) was tested, and the Km [1] was 23.99 ± 13.47 µM, the kcat [1] was 1.203 ± 0.115 s⁻¹ and the kcat/Km [1] was 50200 ± 21000 M⁻¹ s⁻¹.

With CCCC(=O)SCCNC(=O)CCNC(=O)[C@H](O)C(C)(C)COP(=O)(O)OP(=O)(O)OC[C@H]1O[C@@H](n2cnc3c(N)ncnc32)[C@H](O)[C@@H]1OP(=O)(O)O [butyryl-CoA] the “X-ray crystal structure, soaked, 2.1 Å” value (BktBbr [2]) was “Binding of butyryl-CoA in the active site (PDB ID: 9BWL)”.

For CC(=O)CC(=O)SCCNC(=O)CCNC(=O)[C@H](O)C(C)(C)COP(=O)(O)OP(=O)(O)OC[C@H]1O[C@@H](n2cnc3c(N)ncnc32)[C@H](O)[C@@H]1OP(=O)(O)O [acetoacetyl-CoA], the “coupled alpha-KGDH assay, TAL formation” value (BktBbr [3]) was “purified mutants of S254A and G251A exhibited overall better enzyme activity for TAL formation”, the “coupled alpha-KGDH assay, TAL formation” value (BktBbr [4]) was “while G255A performed comparably to the wild-type” and the “X-ray crystal structure, soaked, 2.4 Å” value (BktBbr [5]) was “Interaction of acetoacetyl-CoA with BktBbr through water molecules (PDB ID: 9BWP)”.

For CC(=O)SCCNC(=O)CCNC(=O)[C@H](O)C(C)(C)COP(=O)(O)OP(=O)(O)OC[C@H]1O[C@@H](n2cnc3c(N)ncnc32)[C@H](O)[C@@H]1OP(=O)(O)O [acetyl-CoA], the Km (BktBbb) was 43.3 ± 16.6 µM and the “X-ray crystal structure, soaked, 2.2 Å” value (BktBbr [6]) was “bound with acetyl-CoA, acetoacetyl-CoA, and butyryl-CoA (PDB IDs: 9BWO, 9BWP, 9BWL)”.

B1: 2-PS (Gerbera hybrid cultivar) (protein)
chain: MGSYSSDDVEVIREAGRAQGLATILAIGTATPPNCVAQADYADYYFRVTKSEHMVDLKEKFKRICEKTAIKKRYLALTEDYLQENPTMCEFMAPSLNARQDLVVTGVPMLGKEAAVKAIDEWGLPKSKITHLIFCTTAGVDMPGADYQLVKLLGLSPSVKRYMLYQQGCAAGGTVLRLAKDLAENNKGSRVLIVCSEITAILFHGPNENHLDSLVAQALFGDGAAALIVGSGPHLAVERPIFEIVSTDQTILPDTEKAMKLHLREGGLTFQLHRDVPLMVAKNIENAAEKALSPLGITDWNSVFWMVHPGGRAILDQVERKLNLKEDKLRASRHVLSEYGNLISACVLFIIDEVRKRSMAEGKSTTGEGLDCGVLFGFGPGMTVETVVLRSVRVTAAVANGN
notes: synthetic codon-optimised gene in pET-28a(+)-TEV, E. coli BL21(DE3), Ni-NTA
B1 was tested, and the Km [7] was 6.93 ± 1.34 µM, the kcat [7] was 0.9298 ± 0.0345 s⁻¹ and the kcat/Km [7] was 137000 ± 24800 M⁻¹ s⁻¹.

B2: BktBcn (Cupriavidus necator H16) (protein)
chain: MTREVVVVSGVRTAIGTFGGSLKDVAPAELGALVVREALARAQVSGDDVGHVVFGNVIQTEPRDMYLGRVAAVNGGVTINAPALTVNRLCGSGLQAIVSAAQTILLGDTDVAIGGGAESMSRAPYLAPAARWGARMGDAGLVDMMLGALHDPFHRIHMGVTAENVAKEYDISRAQQDEAALESHRRASAAIKAGYFKDQIVPVVSKGRKGDVTFDTDEHVRHDATIDDMTKLRPVFVKENGTVTAGNASGLNDAAAAVVMMERAEAERRGLKPLARLVSYGHAGVDPKAMGIGPVPATKIALERAGLQVSDLDVIEANEAFAAQACAVTKALGLDPAKVNPNGSGISLGHPIGATGALITVKALHELNRVQGRYALVTMCIGGGQGIAAIFERI
notes: synthetic codon-optimised gene in pET-28a(+)-TEV, E. coli BL21(DE3), Ni-NTA; tetramer
In the case of B2, the Km [8] is reported as 39.25 ± 20.43 µM, the kcat [8] is reported as 1.41 ± 0.261 s⁻¹ and the kcat/Km [8] is reported as 41500 ± 16200 M⁻¹ s⁻¹.

Source: paper PMC12689856, “A highly active Burkholderia polyketoacyl-CoA thiolase for production of triacetic acid lactone” (Nature Communications, 2025)
